US20100143349A1 (Pfizer, published 2010)
Numbering of substitutions follows the chain as printed. Values joined by “and” are separate entries in the source; they are usually repeats but may differ in a detail not shown here. Equal values may be shown once. One block for each binder: values may come before it.

How the values were obtained:
[1] = target: T1, hRAGE-Fc (human, UniProt Q15109 23-342, biotin label in the selections and HTRF assays); assay: HTRF competition, scFv vs labelled parental XT-M4 (competitor) on hRAGE
T1 construct: extracellular domain; also called biotin labeled hRAGE-Fc; Biotin-labeled RAGE-Fc; not shown: Fc part
T1 sequence (Q15109 23-342): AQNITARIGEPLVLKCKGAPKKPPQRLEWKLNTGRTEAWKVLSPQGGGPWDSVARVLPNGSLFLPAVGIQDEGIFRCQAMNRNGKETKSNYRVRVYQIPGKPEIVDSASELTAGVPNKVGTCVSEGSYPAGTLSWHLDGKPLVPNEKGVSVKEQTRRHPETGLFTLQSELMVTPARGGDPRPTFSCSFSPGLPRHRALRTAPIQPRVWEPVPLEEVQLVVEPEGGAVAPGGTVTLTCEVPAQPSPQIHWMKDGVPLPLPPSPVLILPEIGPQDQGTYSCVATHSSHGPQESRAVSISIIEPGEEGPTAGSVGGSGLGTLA
Method: (§1) Increases in binding to RAGE antigen were detected with the aid of a competition assay using parental XT-M4 antibody. Both phage display and ribosome display libraries were selected for affinity improved variants by incubating with biotin labeled hRAGE-Fc, recovering binding clones using streptavidin magnetic beads and washing away non binding variants. Sequential rounds of selection were carried on decreasing antigen concentrations to drive the preferential recovery of higher affinity variants. Clones recovered after selection were subsequently screening for improved binding to hRAGE-Fc using HTRF. This is an assay that measures the decrease in fluorescence upon binding of parental europium cryptate-labeled XT-M4 to RAGE in the presence of competing test scFv antibodies. In these assays, periplasmic preparations of scFv were prepared from bacterial cultures and added in increasing concentrations to a combination of parental antibody and antigen. The ability of the scFV to compete with parental XT-M4 antibody to bind to Biotin-labeled RAGE-Fc was determined. In the presence of avidin-XL665 complex labeled XT-M4 bound to biotinylated RAGE-FC was detected by Fluorescence. Increasing amounts of scFv that competed with the XT-M4 for binding to biotinylated-RAGE-Fc was detected as a decrease in fluorescence. A sequential process of screening was used to focus in on a smaller number of clones with the greatest competition in HTRF assay

[2] = target: T1, hRAGE-Fc; assay: IC50 of parental M4 scFv over IC50 of clone, HTRF competition
Method: as §1

[3] = target: T1, hRAGE-Fc; assay: HTRF competition, scFv vs labelled parental XT-M4 (competitor) on biotin hRAGE-Fc
Method: as §1

[4] = target: T2, HU-RAGE-SA (human, UniProt Q15109 23-342); assay: BIAcore, 10 nM scFv-Fc over directly immobilized HU-RAGE-SA, 1:1 fit
T2 construct: extracellular domain; Directly immobilized on a CM5 chip (~100 RU); also called hRAGE-SA; soluble human streptavidin-tagged RAGE; not shown: streptavidin tag (SA)
T2 sequence (Q15109 23-342): as above

[5] = target: T3, human RAGE expressed on CHO cells (human, UniProt Q15109 23-404); assay: cell ELISA on CHO-RAGE cells, A450 corrected for control CHO cells; phage display set
T3 construct: whole, on cells; also called CHO-RAGE cells; cell surface expressed human RAGE
T3 sequence (Q15109 23-404): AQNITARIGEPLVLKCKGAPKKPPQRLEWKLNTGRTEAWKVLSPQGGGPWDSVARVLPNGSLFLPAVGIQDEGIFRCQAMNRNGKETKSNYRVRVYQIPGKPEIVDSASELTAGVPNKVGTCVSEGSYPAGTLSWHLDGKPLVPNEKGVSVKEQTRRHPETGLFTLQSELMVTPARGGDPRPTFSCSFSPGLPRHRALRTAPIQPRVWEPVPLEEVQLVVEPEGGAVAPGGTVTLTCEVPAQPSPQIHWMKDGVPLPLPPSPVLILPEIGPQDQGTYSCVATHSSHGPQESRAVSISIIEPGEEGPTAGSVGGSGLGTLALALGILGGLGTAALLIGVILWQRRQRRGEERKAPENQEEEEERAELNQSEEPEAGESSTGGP
Method: (§2) Stably transfected Chinese Hamster Ovary (CHO) cells were engineered to express murine and human RAGE full length proteins. The murine and human RAGE cDNAs were cloned into the mammalian expression vector pSMED, linearized and transfected into CHO cells using lipofectin methods (Kaufman, R. J., 1990, Methods in Enzymology 185:537-66; Kaufman, R. J., 1990, Methods in Enzymology 185:487-511; Pittman, D. D. et al., 1993, Methods in Enzymology 222: 236). Cells were further selected in 20 nM methotrexate and cell extracts were harvested from individual clones and analyzed by SDS sodium dodecyl sulfate-polyacrylamide gel electrophoresis (SDS-PAGE) and Western blotting to confirm expression. […] Absorbance 450 nm values were corrected for the same clones binding to control CHO cells not expressing RAGE. EC50 values were calculated after curve fitting using GraphPad prism and are expressed in μg/ml.

[6] = target: T3, human RAGE expressed on CHO cells; assay: cell ELISA on CHO-RAGE cells, A450 corrected for control CHO cells; ribosome display set
Method: as §2

[7] = target: T2, HU-RAGE-SA; assay: BIAcore kd against parental M4 scFv-Fc
[8] = target: T3, human RAGE expressed on CHO cells; assay: cell ELISA on CHO-RAGE cells, A450 corrected for control CHO cells
Method: as §2

[9] = target: T1, hRAGE-Fc; assay: IC50 of parental M4 scFv-Fc (value of the ribosome display set) over IC50 of clone, HTRF competition

B2: parental XT-M4 scFv-Fc fusion (Fc fusion)
chain: DIQMTQSPSSLSASVGDRVTITCRASQDVGIYVNWFQQKPGKAPRRLIYRATNLADGVPSRFSGSRSGTDFTLTISSLQPEDFATYYCLEFDEHPLTFGGGTKVEIKDGGGSGGGGSGGGGSSEVQLVESGGGLVQPGGSLRLSCAASGFTFNNYWMTWVRQAPGKGLEWVASIDNSGDNTYYPDSVKDRFTISRDNAKNSLYLQMNSLRAEDTAVYYCARGGDITTGFDYWGQGTLVTVSS
notes: Bivalent scFv-Fc made in COS cells; not shown: wild-type human IgG Fc (hinge and constant domains)
koff [4]: 0.0293 s⁻¹ and 0.0291 s⁻¹ | EC50 [5]: 0.408 µg/mL | EC50 [6]: 0.388 µg/mL

B3: S2R3A1_8G9 scFv (scFv)
scFv: B2 chain with G139S, F229L
IC50 [1]: 2.4 nM | Fold gain scFv (hRAGE) [2]: 13.8 fold | IC50 [3]: ~2.4 nM

B4: S2R4A4_1G6 scFv (scFv)
scFv: B2 chain with I31F, T227N
IC50 [1]: 1.2 nM | Fold gain scFv (hRAGE) [2]: 21.5 fold | IC50 [3]: 1.2 nM

B6: 6G4 scFv-Fc fusion (Fc fusion)
chain: B2 chain with T226L, T227D, G228S, F229L, D230H, Y231F
notes: Assayed separately; fold gain against the M4 value of the ribosome display set; not shown: wild-type human IgG Fc (hinge and constant domains)
koff [4]: 0.00388 s⁻¹ | Fold change in kd [7]: 7.6 fold | EC50 [8]: 0.172 µg/mL | Fold gain scFv-Fc (hRAGE) [9]: 11.1 fold

B7: S2R4A3_10H6 scFv (scFv)
scFv: B2 chain with R18G, R24Q, D108N, F229L, V240E
notes: also called 10H6 (a)
IC50 [1]: 0.3 nM | Fold gain scFv (hRAGE) [2]: 110 fold | IC50 [3]: 0.3 nM

Further binders by falling IC50 [1], results first:

IC50 [1]: 8.2 nM | Fold gain scFv (hRAGE) [2]: 4 fold | IC50 [3]: 8.2 nM
B1: S2R3A1_5H3 scFv (scFv)
scFv: B2 chain with Y49D, Q126L

IC50 [1]: 3 nM | Fold gain scFv (hRAGE) [2]: 11 fold | IC50 [3]: ~3 nM
B8: S2R4A3_5A3 scFv (scFv)
scFv: B2 chain with R18I, G68S, Q205K, A220T, F229L

IC50 [1]: 2.6 nM | Fold gain scFv (hRAGE) [2]: 12.7 fold | IC50 [3]: 2.6 nM
B5: S2R4A3_10D8 scFv (scFv)
scFv: B2 chain with R18K, I31F, G114N, G133E
notes: also called 10D8 (b)
